Results on one protein are retold here after paper PMC9049607.

Experiment in all cases: purified protein
Substrate in data set [1]: NC(=O)C1=CN([C@@H]2O[C@H](COP(=O)(O)OP(=O)(O)OC[C@H]3O[C@@H](n4cnc5c(N)ncnc54)[C@H](O)[C@@H]3O)[C@@H](O)[C@H]2O)C=CC1
The note with it: 5 mM (E/Z)-citral, 100 mM PBS pH 8.0, 30°C, varied: cofactor.

Substrate in data set [2]: CC(C)=CCC/C(C)=C/C=O
The conditions noted are these: 0.2 mM NADH, 100 mM PBS pH 8.0, 30°C.

Substrate in data set [3]: CC(C)=CCC/C(C)=C\C=O
The conditions noted are these: 0.2 mM NADH, 100 mM PBS pH 8.0, 30°C.

B1: OYE2p (Saccharomyces cerevisiae S288C) (protein)
chain: PFVKDFKPQALGDTNLFKPIKIGNNELLHRAVIPPLTRMRAQHPGNIPNRDWAVEYYAQRAQRPGTLIITEGTFPSPQSGGYDNAPGIWSEEQIKEWTKIFKAIHENKSFAWVQLWVLGWAAFPDTLARDGLRYDSASDNVYMNAEQEEKAKKANNPQHSITKDEIKQYVKEYVQAAKNSIAAGADGVEIHSANGYLLNQFLDPHSNNRTDEYGGSIENRARFTLEVVDAVVDAIGPEKVGLRLSPYGVFNSMSGGAETGIVAQYAYVLGELERRAKAGKRLAFVHLVEPRVTNPFLTEGEGEYNGGSNKFAYSIWKGPIIRAGNFALHPEVVREEVKDPRTLIGYGRFFISNPDLVDRLEKGLPLNKYDRDTFYKMSAEGYIDYPTYEEALKLGWDKN
Usually Km stands for the substrate concentration at which the rate is half of its maximum. In general, kcat refers to the maximal rate divided by the concentration of active sites. The term kcat/Km denotes the turnover number divided by the Michaelis constant. As to B1, the Km in “purified protein [1]” turned out to be 14 ± 4 µM; in “purified protein [2]”, 120 ± 25 µM; in “purified protein [3]”, 310 ± 47 µM. For the same protein, the figures for the kcat in “purified protein [2]” and in “purified protein [3]” were 0.213 ± 0.008 s⁻¹ and 0.13 ± 0.008 s⁻¹, respectively. Besides, the figures for the kcat/Km in “purified protein [2]” and in the data set “purified protein [3]” were 1780 ± 305 M⁻¹ s⁻¹ and 421 ± 39 M⁻¹ s⁻¹, respectively.
